Assay results taken from patent US20140065069A1, “Materials and Methods Relating to Cardiovascular Imaging” (KING'S COLLEGE LONDON, priority 2011, published 2014).
“Also recorded” adds a separate entry of the source. No end group written: not given here.

Key:
tropoelastin = biological target: T1, tropoelastin (Mus musculus, UniProt P54320); assay: In vivo imaging of plaques in HFD fed ApoE−/− mice with gadolinium labelled conjugates; conditions: gadolinium labelled conjugate
T1 construct: from tissue; host or cells: plaque-laden brachiocephalic artery and aortic arch of living HFD-fed ApoE-/- mice
T1 sequence (P54320 28-860): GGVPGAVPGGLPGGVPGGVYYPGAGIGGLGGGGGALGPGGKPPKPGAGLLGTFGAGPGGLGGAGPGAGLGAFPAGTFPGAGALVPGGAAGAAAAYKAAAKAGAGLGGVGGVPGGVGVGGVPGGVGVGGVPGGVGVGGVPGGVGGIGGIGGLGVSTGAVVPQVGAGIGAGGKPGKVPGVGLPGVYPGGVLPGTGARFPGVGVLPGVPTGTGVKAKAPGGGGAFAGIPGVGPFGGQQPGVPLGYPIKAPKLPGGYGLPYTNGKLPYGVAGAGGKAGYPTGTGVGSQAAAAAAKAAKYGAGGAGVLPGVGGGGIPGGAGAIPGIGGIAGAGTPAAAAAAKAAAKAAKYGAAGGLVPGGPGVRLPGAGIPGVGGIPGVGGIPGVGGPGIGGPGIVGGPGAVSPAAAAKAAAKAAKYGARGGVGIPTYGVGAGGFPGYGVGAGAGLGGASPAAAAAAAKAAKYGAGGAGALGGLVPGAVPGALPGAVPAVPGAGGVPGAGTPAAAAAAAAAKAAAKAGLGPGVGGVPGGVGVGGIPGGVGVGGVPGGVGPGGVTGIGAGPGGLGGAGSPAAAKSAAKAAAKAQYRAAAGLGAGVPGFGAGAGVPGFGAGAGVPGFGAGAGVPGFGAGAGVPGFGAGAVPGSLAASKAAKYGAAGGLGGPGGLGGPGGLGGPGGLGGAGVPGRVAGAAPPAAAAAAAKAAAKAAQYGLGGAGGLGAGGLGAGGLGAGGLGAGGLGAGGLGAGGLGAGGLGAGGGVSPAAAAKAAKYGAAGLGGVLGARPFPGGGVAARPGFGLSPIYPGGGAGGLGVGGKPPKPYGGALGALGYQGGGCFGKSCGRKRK
Text: MRI will be performed in a mouse model of progressive atherosclerosis at 4, 8 and 12 weeks post commencement of a high fat diet and in a model of angiotensin-II (Ang-II) induced aortic aneurysm formation at 1, 2, 3 and 4 weeks post Ang-II releasing mini pump implantation. Ten mice will be scanned at each time point either receiving the tropoelastin or TNF-alpha binding contrast agent (CA) resulting in a total of […], respectively. Animals will undergo a pre and post contrast MRI session at each time point and subsequently will be sacrificed for validation with histology, immunostaining, electron and mass spectroscopy.

Row | Substance | uptake in plaque-free carotid artery (tropoelastin) | uptake in plaque-laden brachiocephalic artery (BCA) and aortic arch (tropoelastin) | time of imaging post contrast injection (12 weeks HFD fed ApoE−/− mice) [h] | biodistribution (HFD fed ApoE−/− mice) | renal clearance (HFD fed ApoE−/− mice)
1 | (DOTA-Gd)-VVGSPSAQDEASPLS (not fully specified (N-terminus); printed as (DOTA-Gd)-VVGSPSAQDEASPLS; also: Gd complexed by DOTA) | no uptake; also recorded: not in the plaque-free carotid artery | preferential uptake | ≥ 1 | favourable biodistribution | rapid renal clearance
2 | K(DOTA-Gd)-YPDHVQYTHY (not fully specified (N-terminus); printed as K(DOTA-Gd)-YPDHVQYTHY; also: Gd complexed by DOTA on the N-terminal Lys) [K-(DOTA-Gd)-YPDHVQYTHY] | no uptake | preferential uptake | – | – | –
